Test results from US20230235048A1 (PROTHENA BIOSCIENCES, published 2023).
Substitutions are numbered along the chain they refer to.

T1: extracellular domain (ECD) of recombinant human Sortilin with a C-terminal HIS tag (ECD-huSortilin-HIS) (human, UniProt Q99523 78-755)
T1 construct: Bought (R&D Systems); also called human sortilin-ECD; not shown: C-terminal HIS tag
T1 sequence: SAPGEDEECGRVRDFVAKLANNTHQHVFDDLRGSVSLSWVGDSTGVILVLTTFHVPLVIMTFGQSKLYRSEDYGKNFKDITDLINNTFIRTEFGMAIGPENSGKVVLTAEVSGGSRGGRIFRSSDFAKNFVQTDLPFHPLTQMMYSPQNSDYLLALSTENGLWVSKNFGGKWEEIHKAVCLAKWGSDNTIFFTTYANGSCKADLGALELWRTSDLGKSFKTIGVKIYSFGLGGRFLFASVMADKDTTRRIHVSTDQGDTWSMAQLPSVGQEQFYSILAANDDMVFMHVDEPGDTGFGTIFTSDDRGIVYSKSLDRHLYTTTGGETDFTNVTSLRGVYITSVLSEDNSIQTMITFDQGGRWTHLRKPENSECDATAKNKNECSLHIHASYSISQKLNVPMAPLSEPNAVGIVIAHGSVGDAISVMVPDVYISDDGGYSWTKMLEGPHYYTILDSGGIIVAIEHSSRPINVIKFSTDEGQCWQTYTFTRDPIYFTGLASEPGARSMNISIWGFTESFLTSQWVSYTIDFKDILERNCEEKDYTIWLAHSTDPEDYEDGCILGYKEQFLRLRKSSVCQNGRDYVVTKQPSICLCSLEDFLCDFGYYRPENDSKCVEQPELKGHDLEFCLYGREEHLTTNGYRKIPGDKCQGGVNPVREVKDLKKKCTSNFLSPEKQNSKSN

B1: chimeric 11M14 (antibody, human IgG1, kappa, L234A L235A, V domains shown)
VH: EVQLVESGGDLVKPGGSLKLSCAASGFTFNIYGMSWVRQTPDKRLEWVATISSGGIYTYYPDILKGRFTISRDNAKNTLYLQMSSLKSEDTAMYYCARHPGGAMDYWGQGTSVTVSS
VL: DIQMTQSPASLSVSVGETVTITCRVSENIYSNLAWYQQKQGKSPHLLVYAATNLADGVPSRFSGSGSGTQYSLKINSLQSEDFGSYYCQHFWGTPPWTFGGGTKLEIKR
B2: humanized 11M14 hu11M14VHv1b/hu11M14VLv2b (antibody, V domains shown)
VH: EVQLVESGGGLVQPGGSLRLSCAASGFTFNIYGMSWVRQAPGKGLEWVATISSGGIYTYYPDILKGRFTISRDNAKNSLYLQMNSLRAEDTAVYYCARHPGGAMDYWGQGTLVTVSS
VL: DIQMTQSPSSLSASVGDRVTITCRVSENIYSNLAWYQQKPGKSPKLLVYAATNLADGVPSRFSGSGSGTDYTLTISSLQPEDFATYYCQHFWGTPPWTFGQGTKLEIK
notes: Human IgG; also called 11M14H1bL2b
B3: humanized 11M14 hu11M14VHv1b/hu11M14VLv3b (antibody, V domains shown)
VH: B2 VH
VL: B2 VL with L54G
notes: Human IgG; also called 11M14H1bL3b; hu11M14H1bL3b
B4: humanized 11M14 hu11M14VHv1b/hu11M14VLv4b (antibody, V domains shown)
VH: B2 VH
VL: B2 VL with L54I
notes: Human IgG; also called 11M14H1bL4b
B5: humanized 11M14 hu11M14VHv2b/hu11M14VLv2b (antibody, V domains shown)
VH: B2 VH with L86G
VL: B2 VL
notes: Human IgG; also called 11M14H2bL2b
B6: humanized 11M14 hu11M14VHv2b/hu11M14VLv3b (antibody, V domains shown)
VH: B2 VH with L86G
VL: B2 VL with L54G
notes: Human IgG; also called 11M14H2bL3b
B7: humanized 11M14 hu11M14VHv2b/hu11M14VLv4b (antibody, V domains shown)
VH: B2 VH with L86G
VL: B2 VL with L54I
notes: Human IgG; also called 11M14H2bL4b
B8: humanized 11M14 hu11M14VHv3b/hu11M14VLv2b (antibody, V domains shown)
VH: B2 VH with L81G
VL: B2 VL
notes: Human IgG; also called 11M14H3bL2b
B9: humanized 11M14 hu11M14VHv3b/hu11M14VLv3b (antibody, V domains shown)
VH: B2 VH with L81G
VL: B2 VL with L54G
notes: Human IgG; also called 11M14H3bL3b
B10: humanized 11M14 hu11M14VHv3b/hu11M14VLv4b (antibody, V domains shown)
VH: B2 VH with L81G
VL: B2 VL with L54I
notes: Human IgG; also called 11M14H3bL4b
B11: humanized 5E20 hu5E20VHv3/hu5E20VLv3 (antibody, V domains shown)
VH: EVQLVESGGGLVQPGGSLRLSCAASGFTFSTYGMSWVRQAPGKRLEWVAIISSGGSYTYYSDTVKGRFTISRDNSKNSLYLQMNSLRAEDTAVYYCSRSSSHWYFDVWGQGTLVTVSS
VL: DIQMTQSPSSVSASVGDRVTITCHASQGISSNIGWLQQKPGKAFKGLIYHGTNLKDGVPSRFSGSGSGADFTLTISSLQPEDFATYFCVQYAQFPYTFGQGTKVEKR
notes: Human IgG; also called 5E20H3L3
B12: humanized 5E20 hu5E20VHv1/hu5E20VLv1 (antibody, V domains shown)
VH: B11 VH with V5L, R44G, S78T
VL: B11 VL with V11L, Q100G, K106I
notes: Human IgG (detected or captured with anti-human IgG; huIgG1 control); also called 5E20H1L1
B13: humanized 5E20 hu5E20VHv1/hu5E20VLv2 (antibody, V domains shown)
VH: B11 VH with V5L, R44G, S78T
VL: B11 VL with K106I
notes: Human IgG; also called 5E20H1L2
B14: humanized 5E20 hu5E20VHv1/hu5E20VLv3 (antibody, V domains shown)
VH: B11 VH with V5L, R44G, S78T
VL: B11 VL
notes: Human IgG; also called 5E20H1L3
B15: humanized 5E20 hu5E20VHv2/hu5E20VLv1 (antibody, V domains shown)
VH: B11 VH with R44G
VL: B11 VL with V11L, Q100G, K106I
notes: Human IgG; also called 5E20H2L1
B16: humanized 5E20 hu5E20VHv2/hu5E20VLv2 (antibody, V domains shown)
VH: B11 VH with R44G
VL: B11 VL with K106I
notes: Human IgG; also called 5E20H2L2
B17: humanized 5E20 hu5E20VHv2/hu5E20VLv3 (antibody, V domains shown)
VH: B11 VH with R44G
VL: B11 VL
notes: Human IgG; also called 5E20H2L3
B18: humanized 5E20 hu5E20VHv3/hu5E20VLv4 (antibody, V domains shown)
VH: B11 VH
VL: B11 VL with T85D
notes: Human IgG; also called 5E20H3L4
B19: humanized 5E20 hu5E20VHv4/hu5E20VLv3 (antibody, V domains shown)
VH: B11 VH with G42D
VL: B11 VL
notes: Human IgG; also called 5E20H4L3
B20: humanized 5E20 hu5E20VHv4/hu5E20VLv4 (antibody, V domains shown)
VH: B11 VH with G42D
VL: B11 VL with T85D
notes: Human IgG; also called 5E20H4L4
B21: humanized 5E20 hu5E20VHv5/hu5E20VLv3 (antibody, V domains shown)
VH: B11 VH with G42D, R87K
VL: B11 VL
notes: Human IgG; also called 5E20H5L3
B22: humanized 5E20 hu5E20VHv5/hu5E20VLv4 (antibody, V domains shown)
VH: B11 VH with G42D, R87K
VL: B11 VL with T85D
notes: Human IgG; also called 5E20H5L4
B23: humanized 5E20 hu5E20VHv7/hu5E20VLv3 (antibody, V domains shown)
VH: B11 VH with A40T, G42D
VL: B11 VL
notes: Human IgG; also called 5E20H7L3
B24: humanized 5E20 hu5E20VHv7/hu5E20VLv4 (antibody, V domains shown)
VH: B11 VH with A40T, G42D
VL: B11 VL with T85D
notes: Human IgG; also called 5E20H7L4; hu5E20H7L4

The binders below were run against T1, extracellular domain (ECD) of … (assay: ELISA, ECD-huSortilin-HIS coated at 1 ug/mL, goat anti-human IgG-HRP, chemiluminescence).
Procedure: 384-well ELISA plates were coated with 1 ug/mL recombinant ECD-huSortilin-HIS (20 uL/well) and incubated overnight at 4° C. all plates were blocked with 3% BSA in PBS for 1 hour at room temperature. Plates were then washed with Tris buffered saline containing 0.1% Tween20 (TBST) three times. 20 uL of humanized anti-Sortilin mAbs diluted 3-fold from 20 ug/mL to 0.3 ng/mL in 1% BSA in TBST were added to the wells, incubated for 1 hour at room temperature and then washed as above. Goat anti-human IgG specific-HRP (Jackson Immunoresearch) diluted 1:7000 in 1% BSA in TBST was then added at 20 uL per well to react with the bound antibodies and plates were incubated for 1 hour before being washed as above. Super signal Pico chemiluminescent ELISA substrate (ThermoFisher) was used for detection. 20 uL of substrate was added to each well and Relative Light Units (RLU) were measured immediately using the SpectraMax Paradigm (Molecular Devices). Data was analyzed and EC₅₀ was calculated using graphed Prism.

| Binder | EC50 [µg/mL] |
| --- | --- |
| B1 | 0.06 |
| B2 | 0.08 |
| B3 | 0.07 |
| B4 | 0.08 |
| B5 | 0.07 |
| B6 | 0.13 |
| B7 | 0.1 |
| B8 | 0.19 |
| B9 | 0.23 |
| B10 | 0.1 |
| B11 | 0.09 |
| B12 | 0.12 |
| B13 | 0.12 |
| B14 | 0.09 |
| B15 | 0.12 |
| B16 | 0.08 |
| B17 | 0.1 |
| B18 | 0.07 |
| B19 | 0.07 |
| B20 | 0.04 |
| B21 | 0.07 |
| B22 | 0.05 |
| B23 | 0.06 |
| B24 | 0.04 |

The binders below were run against T1, extracellular domain (ECD) of … (assay: SPR (Biacore T200), mAb captured by anti-human antibody on CM5, Sortilin 0.1-300 nM as analyte, global 1:1 fit).
Procedure: Analysis was performed using a Biacore T200 to compare the binding affinity of chimeric and humanized antibodies to recombinant human Sortilin. Anti-Human antibody was immobilized on sensor chip CM5 (GE Healthcare Life Sciences) via amine coupling, and humanized antibodies (ligand) were captured to a level to ensure a maximum binding of analyte of 50 RU (approximately 100 RU of ligand binding). Various concentrations of Sortilin (ranging from 0.1 nM to 300 nM) were passed over the captured ligand at 50 μL/min in running buffer (HBS+0.05% P-20, 1 mg/mL BSA) for 300s association time and 1200s dissociation time. Regeneration of the chip surface was accomplished by 2 short injections of 3M MgCl. Data was blank subtracted to both a sensor not containing ligand and 0 nM analyte concentration. Analysis was performed using a global 1:1 fit with Biacore Insight Evaluation software (v2.0) with bulk refractive index set to zero RU.

| Binder | Kd [nM] | koff [s⁻¹] | kon [M⁻¹ s⁻¹] |
| --- | --- | --- | --- |
| B1 | 2.52 | – | – |
| B2 | 5.37 | 0.00193 | 360000 |
| B3 | 5.3 | 0.002 | 377000 |
| B4 | 5.32 | 0.0019 | 357000 |
| B5 | 2.86 | 0.0012 | 421000 |
| B6 | 2.99 | 0.00119 | 398000 |
| B7 | 2.84 | 0.00117 | 413000 |
| B8 | 7.07 | 0.00225 | 319000 |
| B9 | 9.17 | 0.00343 | 374000 |
| B10 | 7.91 | 0.00344 | 435000 |
| B11 | 15.3 | 0.0028 | 183000 |
| B18 | 14.8 | 0.00257 | 174000 |
| B19 | 6.36 | 0.00145 | 228000 |
| B20 | 5.57 | 0.00117 | 209000 |
| B21 | 6.01 | 0.0014 | 233000 |
| B22 | 5.46 | 0.00115 | 211000 |
| B23 | 4.18 | 0.00108 | 259000 |
| B24 | 5.02 | 0.0011 | 218000 |
